Relative amount of E1a among the components co-purified as OADHc (band intensity in PAGE), Kd and Km data for 7 molecules are collected here from article PMC9367764, “Functional Versatility of the Human 2-Oxoadipate Dehydrogenase in the L-Lysine Degradation Pathway toward Its Non-Cognate Substrate 2-Oxopimelic Acid” (International Journal of Molecular Sciences, 2022).

What is called Kd is the concentration at which binding is half-saturated. As a reminder, the Km is the substrate concentration at which the rate is half of its maximum.

The target in data set [1] is human dihydrolipoamide succinyltransferase (E2o) (human) (UniProt P36957). In words: pull-down; co-purification of E1a or Arg715Cys E1a with E2o and E3 (assembly into OADHc) on immobilized metal affinity chromatography; relative amounts from band intensities in PAGE; which component was held by the resin is not stated.
Sequence of human dihydrolipoamide succinyltransferase (E2o) (human) (P36957 68-453): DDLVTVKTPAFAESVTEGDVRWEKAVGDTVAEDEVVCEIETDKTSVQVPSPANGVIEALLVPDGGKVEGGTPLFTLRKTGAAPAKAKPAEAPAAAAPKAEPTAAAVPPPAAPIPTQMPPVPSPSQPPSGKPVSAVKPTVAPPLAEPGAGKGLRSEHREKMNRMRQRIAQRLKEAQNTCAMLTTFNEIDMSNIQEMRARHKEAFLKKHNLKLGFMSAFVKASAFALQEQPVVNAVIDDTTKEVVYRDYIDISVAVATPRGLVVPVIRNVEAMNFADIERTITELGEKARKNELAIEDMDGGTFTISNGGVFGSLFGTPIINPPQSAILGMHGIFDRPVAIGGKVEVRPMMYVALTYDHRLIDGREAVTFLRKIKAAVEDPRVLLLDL
The target in data set [2] is human dihydrolipoamide dehydrogenase (E3) (human) (UniProt P09622). The description is as above.
Sequence of human dihydrolipoamide dehydrogenase (E3) (human) (P09622 36-509): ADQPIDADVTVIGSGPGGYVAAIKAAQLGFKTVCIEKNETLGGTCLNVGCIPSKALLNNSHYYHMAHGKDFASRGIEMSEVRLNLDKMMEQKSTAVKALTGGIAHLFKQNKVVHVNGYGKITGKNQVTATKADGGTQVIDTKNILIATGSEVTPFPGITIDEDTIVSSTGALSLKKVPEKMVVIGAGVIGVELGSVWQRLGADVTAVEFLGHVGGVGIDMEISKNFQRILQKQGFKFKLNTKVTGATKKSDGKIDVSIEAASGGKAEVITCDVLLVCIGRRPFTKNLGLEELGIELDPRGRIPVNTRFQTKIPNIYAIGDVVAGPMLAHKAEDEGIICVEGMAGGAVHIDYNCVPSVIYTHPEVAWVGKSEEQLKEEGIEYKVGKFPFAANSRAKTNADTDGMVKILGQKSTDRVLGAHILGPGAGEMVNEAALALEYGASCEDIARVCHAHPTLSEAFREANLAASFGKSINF
The target in data set [3] is E2o di-domain (linker and part of core domain) (Homo sapiens) (UniProt P36957). In words: fluorescence. To be noted: cited from earlier work.
Sequence of E2o di-domain (linker and part of core domain) (Homo sapiens) (P36957 68-219): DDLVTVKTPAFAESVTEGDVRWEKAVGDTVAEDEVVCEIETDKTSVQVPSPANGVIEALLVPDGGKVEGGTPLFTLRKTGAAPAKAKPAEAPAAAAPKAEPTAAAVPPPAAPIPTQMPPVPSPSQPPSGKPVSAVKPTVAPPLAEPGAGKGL
Data set [4] addresses E2o 1-173 di-domain, labelled with N-(1-pyrene) maleimide (human). Nature of the data set: other fluorescence titration; pyrene-labelled E2o 1-173 di-domain titrated by Arg715Cys E1a; 25 °C; 100 mM HEPES (pH 7.5), 0.15 M NaCl, 1% glycerol.
Substrate in data set [5]: O=C(O)CCCCC(=O)C(=O)O
In words: E1a-specific DCPIP reduction assay (Km, kcat). The class given is biochemical, Homo sapiens. To be noted: ThDP, Mg2+ active center; decarboxylated to the E1a-ThDP-enamine intermediate.

Substrate in data set [6]: O=C(O)CCCC(=O)C(=O)O
In words: E1a-specific DCPIP reduction assay (Km, kcat). The following applies: ThDP, Mg2+ active center; decarboxylated to the E1a-ThDP-enamine intermediate. The class given is biochemical, Homo sapiens.

Substrate in data set [7]: O=C(O)CCCC(=O)C(=O)O
Nature of the data set: E1a-specific DCPIP reduction assay (Km). The class given is biochemical, Homo sapiens. The following applies: ThDP, Mg2+.

Turning to “human 2-oxoadipate dehydrogenase (E1a), wild type (enzyme)”, the relative amount of E1a among the components co-purified as OADHc (band intensity in PAGE) in data set [1] and in data set [2] was 46% in each case.
As to “E1a (2-oxoadipate dehydrogenase) (from UniProt Q96HY7)”, the Kd in data set [3] was 1120 nM.
In turn, “Arg715Cys E1a variant of human 2-oxoadipate dehydrogenase (enzyme)” came in with a Kd in data set [4] of 1130 nM. The relative amount of E1a among the components co-purified as OADHc (band intensity in PAGE) in data set [1] and in data set [2] was 7.7% in each case.

B1: 2-oxoadipate dehydrogenase (E1a) (Homo sapiens) (protein)
chain: GYQTERGVYGYRPRKPESREPQGALERPPVDHGLARLVTVYCEHGHKAAKINPLFTGQALLENVPEIQALVQTLQGPFHTAGLLNMGKEEASLEEVLVYLNQIYCGQISIETSQLQSQDEKDWFAKRFEELQKETFTTEERKHLSKLMLESQEFDHFLATKFSTVKRYGGEGAESMMGFFHELLKMSAYSGITDVIIGMPHRGRLNLLTGLLQFPPELMFRKMRGLSEFPENFSATGDVLSHLTSSVDLYFGAHHPLHVTMLPNPSHLEAVNPVAVGKTRGRQQSRQDGDYSPDNSAQPGDRVICLQVHGDASFCGQGIVPETFTLSNLPHFRIGGSVHLIVNNQLGYTTPAERGRSSLYCSDIGKLVGCAIIHVNGDSPEEVVRATRLAFEYQRQFRKDVIIDLLCYRQWGHNELDEPFYTNPIMYKIIRARKSIPDTYAEHLIAGGLMTQEEVSEIKSSYYAKLNDHLNNMAHYRPPALNLQAHWQGLAQPEAQITTWSTGVPLDLLRFVGMKSVEVPRELQMHSHLLKTHVQSRMEKMMDGIKLDWATAEALALGSLLAQGFNVRLSGQDVGRGTFSQRHAIVVCQETDDTYIPLNHMDPNQKGFLEVSNSPLSEEAVLGFEYGMSIESPKLLPLWEAQFGDFFNGAQIIFDTFISGGEAKWLLQSGIVILLPHGYDGAGPDHSSCRIERFLQMCDSAEEGVDGDTVNMFVVHPTTPAQYFHLLRRQMVRNFRKPLIVASPKMLLRLPAAVSTLQEMAPGTTFNPVIGDSSVDPKKVKTLVFCSGKHFYSLVKQRESLGAKKHDFAIIRVEELCPFPLDSLQQEMSKYKHVKDHIWSQEEPQNMGPWSFVSPRFEKQLACKLRLVGRPPLPVPAVGIGTVHLHQHEDILAKTFA
notes: C-terminally His6-tagged E1a
B1: the Km in data set [5] is 37 µM; in data set [6] it was 4.9 µM.

B2: 2-oxoadipate dehydrogenase (E1a) (Homo sapiens; P773L) (protein)
chain: GYQTERGVYGYRPRKPESREPQGALERPPVDHGLARLVTVYCEHGHKAAKINPLFTGQALLENVPEIQALVQTLQGPFHTAGLLNMGKEEASLEEVLVYLNQIYCGQISIETSQLQSQDEKDWFAKRFEELQKETFTTEERKHLSKLMLESQEFDHFLATKFSTVKRYGGEGAESMMGFFHELLKMSAYSGITDVIIGMPHRGRLNLLTGLLQFPPELMFRKMRGLSEFPENFSATGDVLSHLTSSVDLYFGAHHPLHVTMLPNPSHLEAVNPVAVGKTRGRQQSRQDGDYSPDNSAQPGDRVICLQVHGDASFCGQGIVPETFTLSNLPHFRIGGSVHLIVNNQLGYTTPAERGRSSLYCSDIGKLVGCAIIHVNGDSPEEVVRATRLAFEYQRQFRKDVIIDLLCYRQWGHNELDEPFYTNPIMYKIIRARKSIPDTYAEHLIAGGLMTQEEVSEIKSSYYAKLNDHLNNMAHYRPPALNLQAHWQGLAQPEAQITTWSTGVPLDLLRFVGMKSVEVPRELQMHSHLLKTHVQSRMEKMMDGIKLDWATAEALALGSLLAQGFNVRLSGQDVGRGTFSQRHAIVVCQETDDTYIPLNHMDPNQKGFLEVSNSPLSEEAVLGFEYGMSIESPKLLPLWEAQFGDFFNGAQIIFDTFISGGEAKWLLQSGIVILLPHGYDGAGPDHSSCRIERFLQMCDSAEEGVDGDTVNMFVVHPTTPAQYFHLLRRQMVRNFRKPLIVASPKMLLRLLAAVSTLQEMAPGTTFNPVIGDSSVDPKKVKTLVFCSGKHFYSLVKQRESLGAKKHDFAIIRVEELCPFPLDSLQQEMSKYKHVKDHIWSQEEPQNMGPWSFVSPRFEKQLACKLRLVGRPPLPVPAVGIGTVHLHQHEDILAKTFA
In the case of B2, the Km in data set [7] was determined as 6 µM.

B3: 2-oxoadipate dehydrogenase (E1a) (Homo sapiens; Q305H) (protein)
chain: GYQTERGVYGYRPRKPESREPQGALERPPVDHGLARLVTVYCEHGHKAAKINPLFTGQALLENVPEIQALVQTLQGPFHTAGLLNMGKEEASLEEVLVYLNQIYCGQISIETSQLQSQDEKDWFAKRFEELQKETFTTEERKHLSKLMLESQEFDHFLATKFSTVKRYGGEGAESMMGFFHELLKMSAYSGITDVIIGMPHRGRLNLLTGLLQFPPELMFRKMRGLSEFPENFSATGDVLSHLTSSVDLYFGAHHPLHVTMLPNPSHLEAVNPVAVGKTRGRHQSRQDGDYSPDNSAQPGDRVICLQVHGDASFCGQGIVPETFTLSNLPHFRIGGSVHLIVNNQLGYTTPAERGRSSLYCSDIGKLVGCAIIHVNGDSPEEVVRATRLAFEYQRQFRKDVIIDLLCYRQWGHNELDEPFYTNPIMYKIIRARKSIPDTYAEHLIAGGLMTQEEVSEIKSSYYAKLNDHLNNMAHYRPPALNLQAHWQGLAQPEAQITTWSTGVPLDLLRFVGMKSVEVPRELQMHSHLLKTHVQSRMEKMMDGIKLDWATAEALALGSLLAQGFNVRLSGQDVGRGTFSQRHAIVVCQETDDTYIPLNHMDPNQKGFLEVSNSPLSEEAVLGFEYGMSIESPKLLPLWEAQFGDFFNGAQIIFDTFISGGEAKWLLQSGIVILLPHGYDGAGPDHSSCRIERFLQMCDSAEEGVDGDTVNMFVVHPTTPAQYFHLLRRQMVRNFRKPLIVASPKMLLRLPAAVSTLQEMAPGTTFNPVIGDSSVDPKKVKTLVFCSGKHFYSLVKQRESLGAKKHDFAIIRVEELCPFPLDSLQQEMSKYKHVKDHIWSQEEPQNMGPWSFVSPRFEKQLACKLRLVGRPPLPVPAVGIGTVHLHQHEDILAKTFA
notes: C-terminally His6-tagged E1a variant
For B3, the Km in data set [7] was 5 µM.

B4: 2-oxoadipate dehydrogenase (E1a) (Homo sapiens; R455Q) (protein)
chain: GYQTERGVYGYRPRKPESREPQGALERPPVDHGLARLVTVYCEHGHKAAKINPLFTGQALLENVPEIQALVQTLQGPFHTAGLLNMGKEEASLEEVLVYLNQIYCGQISIETSQLQSQDEKDWFAKRFEELQKETFTTEERKHLSKLMLESQEFDHFLATKFSTVKRYGGEGAESMMGFFHELLKMSAYSGITDVIIGMPHRGRLNLLTGLLQFPPELMFRKMRGLSEFPENFSATGDVLSHLTSSVDLYFGAHHPLHVTMLPNPSHLEAVNPVAVGKTRGRQQSRQDGDYSPDNSAQPGDRVICLQVHGDASFCGQGIVPETFTLSNLPHFRIGGSVHLIVNNQLGYTTPAERGRSSLYCSDIGKLVGCAIIHVNGDSPEEVVRATRLAFEYQRQFRKDVIIDLLCYRQWGHNELDEPFYTNPIMYKIIRAQKSIPDTYAEHLIAGGLMTQEEVSEIKSSYYAKLNDHLNNMAHYRPPALNLQAHWQGLAQPEAQITTWSTGVPLDLLRFVGMKSVEVPRELQMHSHLLKTHVQSRMEKMMDGIKLDWATAEALALGSLLAQGFNVRLSGQDVGRGTFSQRHAIVVCQETDDTYIPLNHMDPNQKGFLEVSNSPLSEEAVLGFEYGMSIESPKLLPLWEAQFGDFFNGAQIIFDTFISGGEAKWLLQSGIVILLPHGYDGAGPDHSSCRIERFLQMCDSAEEGVDGDTVNMFVVHPTTPAQYFHLLRRQMVRNFRKPLIVASPKMLLRLPAAVSTLQEMAPGTTFNPVIGDSSVDPKKVKTLVFCSGKHFYSLVKQRESLGAKKHDFAIIRVEELCPFPLDSLQQEMSKYKHVKDHIWSQEEPQNMGPWSFVSPRFEKQLACKLRLVGRPPLPVPAVGIGTVHLHQHEDILAKTFA
notes: as for B3
Turning to B4, in data set [7], the Km turned out to be 3.5 µM.
